Assay results: patent US20230303649A1 (published 2023)
Substitutions are numbered along the chain they refer to.

T1: IL-2R on human primary T cells (human, UniProt P01589 22-272; P14784 27-551; P31785 23-369)
T1 sequence (looked up) 1: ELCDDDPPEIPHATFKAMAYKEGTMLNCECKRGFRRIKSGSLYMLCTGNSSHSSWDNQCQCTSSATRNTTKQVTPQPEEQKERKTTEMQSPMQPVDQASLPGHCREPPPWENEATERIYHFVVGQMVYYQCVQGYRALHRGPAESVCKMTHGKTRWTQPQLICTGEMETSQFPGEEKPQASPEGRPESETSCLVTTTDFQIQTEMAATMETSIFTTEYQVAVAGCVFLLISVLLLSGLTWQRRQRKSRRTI
T1 sequence (looked up) 2: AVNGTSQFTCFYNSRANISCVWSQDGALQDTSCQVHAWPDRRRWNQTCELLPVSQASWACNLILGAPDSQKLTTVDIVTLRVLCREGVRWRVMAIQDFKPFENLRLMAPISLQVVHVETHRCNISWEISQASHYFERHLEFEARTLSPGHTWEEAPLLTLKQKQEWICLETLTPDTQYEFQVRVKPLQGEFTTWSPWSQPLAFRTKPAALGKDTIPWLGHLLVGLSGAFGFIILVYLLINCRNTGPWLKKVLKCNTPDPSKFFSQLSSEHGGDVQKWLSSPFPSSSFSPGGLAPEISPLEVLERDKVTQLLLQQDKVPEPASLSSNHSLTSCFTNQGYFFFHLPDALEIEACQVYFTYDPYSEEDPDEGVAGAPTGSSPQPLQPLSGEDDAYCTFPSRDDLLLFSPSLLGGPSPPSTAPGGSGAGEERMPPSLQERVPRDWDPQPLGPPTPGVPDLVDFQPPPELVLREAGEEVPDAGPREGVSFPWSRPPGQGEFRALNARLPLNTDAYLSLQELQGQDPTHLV
T1 sequence (looked up) 3: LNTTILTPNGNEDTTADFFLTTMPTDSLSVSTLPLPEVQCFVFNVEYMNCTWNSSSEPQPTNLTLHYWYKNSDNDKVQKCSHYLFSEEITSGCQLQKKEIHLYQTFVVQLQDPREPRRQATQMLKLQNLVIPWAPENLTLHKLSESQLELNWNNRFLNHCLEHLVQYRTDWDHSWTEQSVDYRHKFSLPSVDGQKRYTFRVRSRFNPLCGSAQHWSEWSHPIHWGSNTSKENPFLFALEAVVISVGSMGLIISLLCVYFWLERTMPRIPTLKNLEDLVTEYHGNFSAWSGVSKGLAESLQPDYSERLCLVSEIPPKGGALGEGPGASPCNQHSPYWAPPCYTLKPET

B1: SEQ ID NO 10 (ligand)
chain: APTSSSTKKTQLQLEHLLLDLQMILNGISNHKNPRLARMLTFKFYMPEKATELKHLQCLEEELKPLEEALRLAPSKNFHLRPRDLISDVNVIVLELKGSETTFMCEYADETATIVEFLNRWITFSTSIISTLT
B2: SEQ ID NO 11 (ligand)
chain: APTSSSTKKTQLQLEHLRLDLEMILNGINNYKNPKLTRMLTFKFYMPKKATELKHLQCLEEELKPLEEVLNLAQSKNFHLRPRDLISNINVIVLELKGSETTFMCEYADETATIVEFLNRWITFSTSIISTLT
B3: SEQ ID NO 35 (ligand)
chain: B2 chain with R18L, E22Q, Y31H, Q74P, N88D, T126Q
B4: SEQ ID NO 23 (ligand)
chain: B2 chain with R18L, E22Q, Y31H, N71R, N88D, T126Q
B5: SEQ ID NO 12 (ligand)
chain: B2 chain with L80F, R81D, L85V, I86V, N88D, I92F
B6: SEQ ID NO 9 (ligand)
chain: B1 chain with S29N, A37T, E48K, D88N, V89I, T126Q
B7: SEQ ID NO 32 (ligand)
chain: B2 chain with R18L, E22Q, V69A, N88D, T126Q
B8: SEQ ID NO 17 (ligand)
chain: B2 chain with E22Q, L80F, R81D, L85V, I86V, I92F
B9: SEQ ID NO 31 (ligand)
chain: B2 chain with R18L, E22Q, V69A, Q74P, N88D, T126Q
B10: SEQ ID NO 18 (ligand)
chain: B2 chain with R18L, E22Q, L80F, R81D, L85V, I86V, I92F, T126Q
B11: SEQ ID NO 15 (ligand)
chain: B1 chain with S29N, A37T, E48K, A69V, D88N, V89I, T126Q
B12: SEQ ID NO 30 (ligand)
chain: B1 chain with S29N, R35K, A37T, E48K, R71N, V89I, T126Q
B13: SEQ ID NO 39 (ligand)
chain: B2 chain with R18L, E22Q, N71R, N88D, T126Q
B14: SEQ ID NO 27 (ligand)
chain: B1 chain with S29N, A37T, E48K, A69V, D88N, V89I
B15: SEQ ID NO 36 (ligand)
chain: B2 chain with R18L, E22Q, Y31H, V69A, N88D, T126Q
B16: SEQ ID NO 24 (ligand)
chain: B2 chain with R18L, E22Q, Y31H, N71R, N88D
B17: SEQ ID NO 14 (ligand)
chain: B2 chain with R18L, E22Q, Y31H, K35R, Q74P, T126Q
B18: SEQ ID NO 21 (ligand)
chain: B2 chain with R18L, E22Q, Y31H, V69A, Q74P, T126Q
B19: SEQ ID NO 33 (ligand)
chain: B2 chain with R18L, E22Q, Q74P, N88D, T126Q
B20: SEQ ID NO 37 (ligand)
chain: B1 chain with S29N, R35K, A37T, E48K, V89I, T126Q
B21: SEQ ID NO 16 (ligand)
chain: B2 chain with L80F, R81D, L85V, I86V, I92F, T126Q
B22: SEQ ID NO 25 (ligand)
chain: B1 chain with S29N, A37T, E48K, D88N, V89I
B23: SEQ ID NO 38 (ligand)
chain: B1 chain with S29N, H31Y, R35K, A37T, E48K, V89I, T126Q
B24: SEQ ID NO 34 (ligand)
chain: B2 chain with R18L, E22Q, Y31H, N88D, T126Q
B25: SEQ ID NO 26 (ligand)
chain: B1 chain with S29N, A37T, E48K, A69V, V89I, T126Q
B26: SEQ ID NO 28 (ligand)
chain: B1 chain with S29N, A37T, E48K, A69V, R71N, V89I, T126Q
B27: SEQ ID NO 13 (ligand)
chain: B1 chain with S29N, A37T, E48K, V89I, T126Q
B28: SEQ ID NO 20 (ligand)
chain: B1 chain with S29N, R35K, A37T, E48K, D88N, V89I, T126Q
B29: SEQ ID NO 29 (ligand)
chain: B2 chain with R18L, E22Q, Y31H, K35R, Q74P

What follows are binders tested against T1, IL-2R on human primary T cells (assay: cell-based or functional assay).

Row | CD8 EC50 (nM), STAT5 phosphorylation [nM] | Treg EC50 (nM), STAT5 phosphorylation [nM] | CD4 conv EC50 (nM), STAT5 phosphorylation [nM] | CD8 naïve EC50 (nM), STAT5 phosphorylation [nM] | Binder
1 | 650 | 2.55 | – | – | B1
2 | 650 | 3.96 | – | – | B2
3 | 10000 | 15.7 | 7000 | 10000 | B3
4 | 1820 | 0.49 | 1000 | 1880 | B4
5 | 650 | 200 | – | – | B5
6 | 589 | 0.05 | 2.14 | 822 | B6
7 | 10000 | 94.9 | 7000 | 10000 | B7
8 | 10000 | 1000 | 1000 | 10000 | B8
9 | 10000 | 17 | 7000 | 10000 | B9
10 | 23.5 | 0.08 | 15.9 | 21.1 | B10
11 | 28.4 | 0.01 | 2.52 | 29.8 | B11
12 | 10000 | 10.7 | 7000 | 10000 | B12
13 | 10000 | 91.9 | 5500 | 10000 | B13
14 | 10000 | 5.94 | 4000 | 10000 | B14
15 | 10000 | 11.7 | 4000 | 10000 | B15
16 | 10000 | 18.3 | 4000 | 10000 | B16
17 | 372 | 0.29 | 29.1 | 444 | B17
18 | 151 | 0.07 | 4.81 | 204 | B18
19 | 1000 | 2.53 | 4000 | 1000 | B19
20 | 10000 | 1.11 | 5500 | 10000 | B20
21 | 1.68 | 0.03 | 1.31 | 1.81 | B21
22 | 10000 | 0.43 | 2290 | 10000 | B22
23 | 10000 | 0.4 | 8880 | 10000 | B23
24 | 1000 | 2.44 | 1000 | 1000 | B24
25 | 4270 | 0.67 | 2640 | 4270 | B25
26 | 4000 | 1.02 | 1000 | 4000 | B26
27 | 8650 | 0.65 | 4160 | 8410 | B27
28 | 227 | 0.03 | 1.2 | 312 | B28
29 | 10000 | 9.32 | 2290 | 10000 | B29
